# B1: monoclonal antibody 83-7 against the human insulin receptor (antibody, V domains shown)
# VH: QVQLKESGPGLVAPSQSLSITCTVSGFPLTAYGVNWVRQPPGKGLEWLGMIWGDGNTDYNSALKSRLSISKDNSKSQVFLKMNSLQTDDTARYYCARDPYGSKPMDYWGQGTSVTVSS
# VL: DIVMSQSPSSLVVSVGEKVTMSCKSSQSLLYSSNQKNFLAWYQQKPGQSPKLLIYWASTRESGVPDRFTGSGSGTDFTLTISSVKAEDLAVYYCQQYFRYRTFGGGTKLEIK
# B2: monoclonal antibody 83-14 against the human insulin receptor (antibody, V domains shown)
# VH: QVQLQQSGPELVKPGALVKISCKASGYTFTNYDIHWVKQRPGQGLEWIGWIYPGDGSTKYNEKFKGKATLTADKSSSTAYMHLSSLTSEKSAVYFCAREWAYWGQGTLVTVSA
# VL: DIQMTQSPSSLSASLGERVSLTCRASQDIGGNLYWLQQGPDGTIKRLIYATSSLDSGVPKRFSGSRSGSDYSLTISSLESEDFVDYYCLQYSSSPWTFGGGTKLEIK
# Molecular target: human insulin receptor, B isoform (exon 11+), wild type (human, UniProt P06213)
# Experiment: flow cytometry on cells
row,binding result,Binder
1,binds,B1
2,binds,B2

# Reference: publication PMC12528385 (Nature Communications, 2025)
